T1: TIM3(ECD)-Fc抗原 (human, UniProt Q8TDQ0 22-202)
T1 construct: extracellular domain;domain: Fc; Made in HEK293F cells, purified on Protein A; also called 人TIM3(ECD); pFUSE-IgG1-TIM3(ECD); not shown: TEV cleavage site at the C-terminus of TIM3(ECD); IgG1 Fc of the pFUSE-IgG1 vector
T1 sequence (looked up): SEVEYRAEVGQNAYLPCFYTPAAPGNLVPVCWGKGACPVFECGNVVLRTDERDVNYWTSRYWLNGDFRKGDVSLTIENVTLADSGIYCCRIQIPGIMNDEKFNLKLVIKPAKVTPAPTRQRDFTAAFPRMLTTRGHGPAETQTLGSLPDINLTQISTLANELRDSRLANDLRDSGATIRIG


Columns and labels:
[1] = target: TIM-3 on HEK 293T TIM-3稳转细胞 (UniProt Q8TDQ0); test: flow cytometry on HEK 293T TIM-3 stable cells, 6 ug antibody per 5x10^5 cells, goat-anti-human FITC
[2] = target: TIM-3 on HEK 293T TIM-3稳转细胞 (UniProt Q8TDQ0); test: flow cytometry on HEK293T TIM-3 stable cells, 6 ug nanobody per well, anti-His Alexa Fluor 488
TIM3(ECD)-Fc抗原 = target: T1, TIM3(ECD)-Fc抗原; test: ELISA of crude periplasmic extract on antigen-coated plate, anti-HA detection; clones positive at OD ratio to control >3

Row | Molecule | 阳性细胞比例 [1] | 结合力 (阳性细胞的比例) [2] | binding result (TIM3(ECD)-Fc抗原)
1 | TIM-3阳性抗体(bench marker，BMK; TSR-022) (antibody) | 98.1% |  | 
2 | Nb21 (VHH, Camel VHH from the pMECS vector, made in E. coli; detected through HA tag (ELISA) or His tag (flow cytometry); also called 抗体株21) VHH: QVQLQESGGGSVQAGGSLRLYCAASKITYVSSCMGWFRQAPGKEREGVASIDRDGSTTYADSVKGRFTISRDNAKDSLYLQMNSLKPEDTAMYYCAADWGRWCSLEKAVDFVYWGQGTQVTVSS |  | > 80% | binds
3 | Nb27 (VHH) VHH: QVQLQESGGGLVQPGGSLRLSCAAAGFTFSSSEMTWVRQAPGKGLEWVARISSTSAFTQYAGSVKGRFTISRDNAKNTLYLQLNSLKTEDTAMYYCAKDVYCGGQYCPPVGPGTQVTVSS |  | > 80% | 
4 | Nb19 (VHH, Camel VHH from the pMECS vector, made in E. coli; detected through HA tag (ELISA) or His tag (flow cytometry); also called 抗体株19) VHH: QVQLQESGGGSVQAGGSLRLSCAASTYTVVRNCFGWFRQAPGKKREGVAVIDRDGSTRYAASVKGRFTISKDNAKNALYLQMSSLEPEDTAVYYCAADWNNDRSCPLWADGFGYWGQGTQVTVSS |  |  | binds
5 | Nb28 (VHH, Camel VHH from the pMECS vector, made in E. coli; detected through HA tag (ELISA) or His tag (flow cytometry); also called 抗体株28) VHH: QVQLQESGGGSVQAGGSLRLSCAATKALVISCLAWFRQAPGKEREWVALIGRDGSTSYPDSVKGRFTFSKNTAKNTLELQMNNLKPEDTGAYYCAAATKQDGIPLNPADYDIWGRGTQVTVSS |  |  | binds
6 | Nb18 (VHH) VHH: QVQLQESGGGLVQPGGSLRLSCAASGFTFSVADMSWVRQGPGKGFEWVSSINSDGVSTYYADSVKGRFTISRDNAENTLYLRANSLKTEDTAVYYCAIGHTPCTAGSCRRGQGTQVTVSS |  | > 80% | 
7 | Nb15 (VHH, Camel VHH from the pMECS vector, made in E. coli; detected through HA tag (ELISA) or His tag (flow cytometry); also called 抗体株15) VHH: QVQLQESGGGSVQAGGSLKLSCTASVWIFSNCAMAWYRQAPGKEREFVSAIGSFRDTNYADSVKGRFTISRDNAKNTGYLQMNSLKPEDSAMYYCKIQCGTQVNWGQGTQVTVSS |  |  | binds
8 | Nb20 (VHH) VHH: QVQLQESGGGLVQPGGSLRLSCAASGFTFSVADMTWVRQGLGKGFEWVASVNSDGGSTYYADSVKGRFTISRDNAKNTLYLRLNSLKTEDTAVYYCAIGRTPCTGGFCHRGQGTQVTVSS |  | > 80% | 
9 | Nb22 (VHH, Camel VHH from the pMECS vector, made in E. coli; detected through HA tag (ELISA) or His tag (flow cytometry); also called 抗体株22) VHH: QVQLQESGGGSVRAGGSLRLSCAASGYTYSLYCMGWFRQAPGKEREGVAAISAGGGTTYYSDAVKGRFTISRDNAKKTLYLQMNSLNPEDTAMYYCARSGGYCGLLEYPFTSWGPGTQVTVSS |  | > 80% | binds
10 | Nb23 (VHH) VHH: QVQLQESGGGSVQTGGSLRLSCTASGFTFSSADMSWVRQAPGKGLEWVSSINSGGGWTDYADSVQGRFTISRDNGKNTLYLQMNSLKTEDTAVYYCTIGNTYCSRGACLRGQGTQVTVSS |  | > 80% | 
11 | Nb24 (VHH) VHH: QVQLQESGGGLVQPGGSLRLSCAASGFTFSVADMSWVRQAPGKGLEWVSSINSGGGRTYYADSMKGRFTISRDNGKNTLYLQMNSLKTEDTAVYYCTIGHTYCSGGACLRGQGTQVTVSS |  | > 80% | 
12 | Nb16 (VHH, Camel VHH from the pMECS vector, made in E. coli; detected through HA tag (ELISA) or His tag (flow cytometry); also called 抗体株16) VHH: QVQLQESGGGSVQAGGSLRLSCTASRSTYCMGWFRQAPGKEREGVAIISSDGRTNYADPVKGRFTISKDNAKNTMFLQMNSLKPEDTAMYYCATRPGNSCGTGIDMPYWGKGTQVTVSS |  | > 80% | binds
13 | Nb17 (VHH, Camel VHH from the pMECS vector, made in E. coli; detected through HA tag (ELISA) or His tag (flow cytometry); also called 抗体株17) VHH: QVQLQESGGGSVQAGGSLRLSCAASTTLYIASLGWFRQAPGKEREGVAAVDRDGNLDYADSVKGRFTFSRDHAKNTLYLQMNSLKPEDAAMYYCSAALSYVPAGRRLQPDAYNYWGQGTQVTVSS |  |  | binds
14 | Nb4 (VHH, Camel VHH from the pMECS vector, made in E. coli; detected through HA tag (ELISA) or His tag (flow cytometry); also called 抗体株4) VHH: QVQLQESGGGSVQAGGSLRLSCTASGYTYSRACMGWFRQAPGKQREWVSGIRHDGSTSYADSVKGRFTISRDNAKNTLYLQMNSLKPEDTAMYYCGADIDCRQSRPPYWGQGTQVTVSS |  |  | binds
15 | Nb7 (VHH, Camel VHH from the pMECS vector, made in E. coli; detected through HA tag (ELISA) or His tag (flow cytometry); also called 抗体株7) VHH: QVQLQESGGGSVQAGGSLRLSCAASGYTYSRACMGWFRQAPGKQREWVSGIRHDGSITYADSVKGRFTISRDNAKNTLYLQMNSLKPEDTAMYYCGADIDCRGTRPPYWGQGTQVTVSS |  |  | binds
16 | Nb5 (VHH, Camel VHH from the pMECS vector, made in E. coli; detected through HA tag (ELISA) or His tag (flow cytometry); also called 抗体株5) VHH: QVQLQESGGGSVQVGGSLRLSCTASGYTYSRACMGWFRQAPGKQREWVSGIRHDGSTSYADSVKGRSTISRDNAKNTLYLQMNSLKPEDTAMYYCGADIDCRQSRPPYWGQGTQVTVSS |  |  | binds
17 | Nb2 (VHH, Camel VHH from the pMECS vector, made in E. coli; detected through HA tag (ELISA) or His tag (flow cytometry); also called 抗体株2) VHH: QVQLQESGGGSVQVGGSLRLSCTASGYTYSRACMGWFRQAPGKQREWVSGIRHDGSTSYADSVKGRFTISRDNTKNTLYLQMNSLKPEDTAMYYCGADIDCRQSRPPYWGQGTQVTVSS |  |  | binds
18 | Nb3 (VHH, Camel VHH from the pMECS vector, made in E. coli; detected through HA tag (ELISA) or His tag (flow cytometry); also called 抗体株3) VHH: QVQLQESGGGSVQVGGSLRLSCTASGYTYSRACMGWFRQAPGKQRDWVSGIRHDGSTSYADSVKGRFTISRDNAKNTLYLQMNSLKPEDTAMYYCGADIDCRQSRPPYWGQGTQVTVSS |  |  | binds
19 | Nb6 (VHH, Camel VHH from the pMECS vector, made in E. coli; detected through HA tag (ELISA) or His tag (flow cytometry); also called 抗体株6) VHH: QVQLQESGGGSVQVGGSLRLSCTASGYTYSRACMGWFRQAPGKQREWVSGIRHDGSITYADSVKGRFTISRDNAKNTLYLQMNSLKPEDTAMYYCGADIDCRGTRPPYWGQGTQVTVSS |  |  | binds
20 | Nb8 (VHH, Camel VHH from the pMECS vector, made in E. coli; detected through HA tag (ELISA) or His tag (flow cytometry); also called 抗体株8) VHH: QVQLQESGGGSVQAGGSLRLSCTASGYTYSRACMGWFRQAPGKQREWVSGIRHDGSITYADSVKGRFTISRDNAKNTLYLQMNNLKPEDTAMYYCGADIDCRGTRPPYWGQGTQVTVSS |  |  | binds
21 | Nb25 (VHH, Camel VHH from the pMECS vector, made in E. coli; detected through HA tag (ELISA) or His tag (flow cytometry); also called 抗体株25) VHH: QVQLQESGGGSVQAGGSLRLSCAASVDIYRTYCMGWFRQAPGKQREGVAAISTDGRIRYANSVEGRFTISKDNANNTLYLQMNSLKPEDTAMYFCAADSARCGLWLGGGYPNYWGRGTQVTVSS |  | > 80% | binds
22 | Nb26 (VHH, Camel VHH from the pMECS vector, made in E. coli; detected through HA tag (ELISA) or His tag (flow cytometry); also called 抗体株26) VHH: QVQLQESGGGLVQPGGSLRLSCTASGSTFSTALMGWFRQAPGKEREGVAVISAGGGSTWYADSVKGRFTISRDNTKNTVFLQMISLKPEDTAMYYCASSNSLWTRESRYFGYWGQGTQVTVSS |  | > 80% | binds

Reference: patent CN110144011A (SHANGHAI NOVAMAB BIOPHARMACEUTICALS CO LTD, dated 2019)
